In the supplement of paper PMC10724198:
± gives the standard deviation of the averaged measurements.

System: Saccharomyces cerevisiae
Experiment: protein stability index of tFT-peptide fusion (C-terminal peptide) (PSI (0-1 scale)); higher = more stable (slower turnover)
Settings: genetic background: wild type; temperature: 30 C
Protocol: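 Multiplexed protein stability (MPS) profiling in S. cerevisiae. Random 12-aa peptides (tFT-X12 library) are fused to the C-terminus of a sfGFP-mCherry tandem fluorescent timer, after mCherry and a GGGS linker. Cells are FACS-sorted into 8 mCherry/sfGFP bins and deep-sequenced. The protein stability index (PSI) is the read-weighted bin average, scaled from 0 (unstable) to 1 (stable). Only peptides with >10 reads are reported; cells were grown at 30 °C in SC-His with glucose.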
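Also: PSI is a weighted mean of sequencing reads over stability bins, variants kept only with over 10 reads, mCherry proximal and sfGFP distal, peptide attached via GGGS linker.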

Row | Sequence | protein stability index
1 | GVERLGGVLYVL | 0.6274 ± 0.0015
2 | NQAQTQQMKTEW | 0.608 ± 0.05
3 | DRNKRDERTSEE | 0.744 ± 0.026
4 | SWVSSGTVILQE | 0.74 ± 0.077
5 | PPPAPQTATPHR | 0.714 ± 0.022
6 | PPPPGCLPRPAS | 0.699 ± 0.021
7 | CRSLSAPLPGSF | 0.657 ± 0.021
8 | PSPLTPAAPFPL | 0.674 ± 0.056
9 | LPPPTPPPPLLP | 0.779 ± 0.093
10 | DFGYSLRIIRSE | 0.746 ± 0.0099
11 | QLGVVDVIIGAS | 0.679 ± 0.052
12 | PPPPSPGPASPA | 0.716 ± 0.045
13 | VSLVGGLGFGVG | 0.553 ± 0.028
14 | VVGWGWGGVVRR | 0.763 ± 0.02
15 | PRGWAGGQITPR | 0.686 ± 0.03
16 | AKEERKVIRKMK | 0.659 ± 0.063
17 | RSRPPPPLLPSV | 0.8206 ± 0.0072
18 | ACPCTLCMALSR | 0.6476 ± 0.0014
19 | FGLCRSLESRQF | 0.6606 ± 0.0026
20 | KSVVRLPHLPLE | 0.695 ± 0.02
21 | TRIRLQKNVITL | 0.683 ± 0.014
22 | VFACDTRHWSFD | 0.796 ± 0.019
23 | GGGGGRGGVVVR | 0.682 ± 0.014
24 | PPPLTVPLLSPP | 0.662 ± 0.046
25 | PPPVVLPSTLLS | 0.6665 ± 0.0014

Row | Sequence | protein stability index
26 | LDGLFWHRPCFK | 0.734 ± 0.061
27 | TGKIRWIPAIRS | 0.64 ± 0.039
28 | IKSHHVIPNSCL | 0.616 ± 0.058
29 | FPALPPPLPQPP | 0.585 ± 0.031
30 | AGLLFDSPPLLV | 0.725 ± 0.034
31 | DLRHLLVPVPRI | 0.7066 ± 0.0022
32 | GGGGGFAPGVTG | 0.698 ± 0.046
33 | CRTSRSSSLPPY | 0.7218 ± 0.0054
34 | HVLSQSLSALPC | 0.681 ± 0.044
35 | SLPCLFPPPLLP | 0.726 ± 0.045
36 | PPAPPPCTPPPP | 0.69493 ± 0.0002
37 | DRQRVGYRGPPH | 0.639 ± 0.096
38 | GQGGRAGRAADV | 0.6532 ± 0.001
39 | KDTGTNKASRGQ | 0.67 ± 0.014
40 | SLWPLFVDVVCL | 0.498 ± 0.042
41 | PPPPPAPPLSLP | 0.61 ± 0.01
42 | PRFSFSGLPLPP | 0.681 ± 0.11
43 | LLSRLWPASSSG | 0.672 ± 0.08
44 | LGIEFGVADVGL | 0.786 ± 0.054
45 | SHHKAFFDLVFM | 0.7578 ± 0.0051
46 | KKNKAKRKKYIV | 0.616 ± 0.03
47 | LAFGLGSFVWNC | 0.6765 ± 0.00075
48 | DDFSHVEVFERV | 0.7 ± 0.062
49 | PSPTPSPPFPAP | 0.721 ± 0.038
50 | KLKITSKDKIIK | 0.671 ± 0.016

Row | Sequence | protein stability index
51 | SFDPPYALLPPP | 0.685 ± 0.02
52 | FEAVDSLFMLVL | 0.686 ± 0.034
53 | GDVGGLFYVSLL | 0.7569 ± 0.0027
54 | KGNRGKDAVKTE | 0.7556 ± 0.004
55 | RLFSSSCLPFPP | 0.781 ± 0.16
56 | EWPVGLLREGLG | 0.6177 ± 0.0016
57 | QVHNTEICVPLV | 0.679 ± 0.013
58 | PSLPLSPLSDSR | 0.717 ± 0.032
59 | IPRGTTTFLLEV | 0.638 ± 0.041
60 | GGGGGGGGSSCA | 0.685 ± 0.067
61 | GTACIIVSGYGL | 0.643 ± 0.016
62 | MRVKRVEVVRGG | 0.6903 ± 0.0061
63 | ALWQADTRSVNN | 0.64 ± 0.097
64 | SLCPRVCSERVP | 0.722 ± 0.031
65 | PIGLCLYNSPRF | 0.662 ± 0.035
66 | VQASQFRFSVPL | 0.632 ± 0.013
67 | GEYRECVSWAGG | 0.721 ± 0.07
68 | TKCSPLASRFSC | 0.707 ± 0.016
69 | RDLGPSAISMTV | 0.628 ± 0.043
70 | LPPVQARDPNWQ | 0.6367 ± 0.0014
71 | RLGNVGVGVGVG | 0.616 ± 0.039
72 | VSRACYTPPQFY | 0.68 ± 0.13
73 | GEGRGDGEEGTG | 0.679 ± 0.035
74 | QRQPPEACPKNS | 0.747 ± 0.01
75 | VRTSGRCCPTGP | 0.641 ± 0.036

Row | Sequence | protein stability index
76 | FPGVGARAGVGV | 0.697 ± 0.027
77 | LLHQSRSQVSFY | 0.717 ± 0.093
78 | RLGGSLQRGKVV | 0.734 ± 0.088
79 | GGPSLLEGGAWA | 0.6436 ± 0.0023
80 | GFGFWRNLFYWS | 0.657 ± 0.048
81 | YFCCFIPFFFDC | 0.663 ± 0.069
82 | RAPPPPHPSSPP | 0.744 ± 0.079
83 | NHHETRNDCSST | 0.771 ± 0.12
84 | PTRRPDLFYYSS | 0.74 ± 0.017
85 | PRYSVRGQPRET | 0.728 ± 0.0061
86 | RAFVSDLPHPKS | 0.704 ± 0.098
87 | DMTCSMEQHEDN | 0.663 ± 0.019
88 | RETSGEVESDVT | 0.678 ± 0.014
89 | GLMITSARYVGF | 0.641 ± 0.012
90 | PAVSLPPPAPAS | 0.721 ± 0.051
91 | CRGSGGRVVLVG | 0.674 ± 0.041
92 | GRLLVSVFEVVH | 0.614 ± 0.14
93 | VGVPFLVVGVGV | 0.583 ± 0.00081
94 | ASCLNYSSNRRP | 0.617 ± 0.064
95 | TWRWVGGRWSGL | 0.5601 ± 0.0026
96 | SVLVTRILKFFL | 0.558 ± 0.068
97 | VPYLPPHLPLPP | 0.71 ± 0.043
98 | FACVLVLFPFFL | 0.641 ± 0.099
99 | GERGAYVVGVRW | 0.782 ± 0.019
100 | VLSYFFLFSCAS | 0.502 ± 0.098

Row | Sequence | protein stability index
101 | GGGPGRCAGGGR | 0.669 ± 0.024
102 | PPRGCLYFSRPP | 0.739 ± 0.095
103 | YRPPFPAALFSE | 0.6962 ± 0.0034
104 | TLVALGFIYASG | 0.572 ± 0.0048
105 | PFSAPRRLPRTV | 0.697 ± 0.0089
106 | AMFFAFSRSLMS | 0.639 ± 0.026
107 | LGGGPTGARPAM | 0.782 ± 0.078
108 | TSEIGKEINYRK | 0.66 ± 0.017
109 | GGGGGGGGRRPG | 0.616 ± 0.0097
110 | NGTLQKGGLRRQ | 0.6547 ± 0.00088
111 | DLTITFYKSGQL | 0.715 ± 0.032
112 | PPPCRPSQFPPL | 0.742 ± 0.015
113 | IVRNDRSGPWGD | 0.756 ± 0.12
114 | NIKNQEVKTHDT | 0.6796 ± 0.0054
115 | SLLPGGHRWAGI | 0.659 ± 0.025
116 | HGTVQNIVARYV | 0.611 ± 0.026
117 | PVCELCLITLRG | 0.59 ± 0.053
118 | GGYLLAGEGTFA | 0.702 ± 0.0094
119 | MPPRNAENRSLP | 0.6793 ± 0.003
120 | PLRPPSSPLWHT | 0.6937 ± 0.0037
121 | PRGPPTPPLTSP | 0.669 ± 0.043
122 | KGKKTTKTDAKK | 0.612 ± 0.061
123 | STPPPHSPLPPP | 0.689 ± 0.066
124 | PPSPFHPPPPER | 0.551 ± 0.013
125 | SLSSTVPRFCEV | 0.6241 ± 0.0028

Row | Sequence | protein stability index
126 | SCPAPAALPLPR | 0.674 ± 0.026
127 | LFFLRFSHFFVG | 0.605 ± 0.014
128 | LSFTSVLGQIPV | 0.705 ± 0.039
129 | SLSLFPPRRLLP | 0.734 ± 0.088
130 | DKKPVQVIIIRK | 0.667 ± 0.1
131 | DRGGDVGRCAGF | 0.677 ± 0.011
132 | PRGFVHLPPPYT | 0.756 ± 0.12
133 | SYMLEGVEGVGE | 0.736 ± 0.086
134 | MPVWGGSASRAL | 0.713 ± 0.066
135 | GGSIGTELAAVI | 0.682 ± 0.054
136 | FLAGGRFLCIVV | 0.593 ± 0.098
137 | LVRCRKGEGRGA | 0.701 ± 0.032
138 | GRWRVEYWGFGG | 0.722 ± 0.025
139 | SRYSAVSVSRWH | 0.696 ± 0.041
140 | STFGVMVTHEMN | 0.727 ± 0.021
141 | VWGERPRFGGWG | 0.691 ± 0.038
142 | PPRPPPLLPRTL | 0.707 ± 0.014
143 | RVCSGYSRLRFA | 0.561 ± 0.085
144 | VTRGGRVFIVDL | 0.807 ± 0.094
145 | TMLIGTAQAVNN | 0.604 ± 0.026
146 | VWSILSCRTRLL | 0.503 ± 0.02
